Reference: PMC12187869, “Transport of the uremic toxin symmetric dimethylarginine (SDMA) by renal transport proteins” (Amino Acids, 2025)

Test system: T1, CN=C(NC)NCCC[C@H](N)C(=O)O
T1 construct: HEK293 cells stably expressing human CAT1
Assay: [3H]SDMA uptake kinetics (Km) and efflux in HEK-CAT1 cells
Assay type: cell-based, Homo sapiens

Chain of CAT1 (Homo sapiens) (chain, as listed by the source): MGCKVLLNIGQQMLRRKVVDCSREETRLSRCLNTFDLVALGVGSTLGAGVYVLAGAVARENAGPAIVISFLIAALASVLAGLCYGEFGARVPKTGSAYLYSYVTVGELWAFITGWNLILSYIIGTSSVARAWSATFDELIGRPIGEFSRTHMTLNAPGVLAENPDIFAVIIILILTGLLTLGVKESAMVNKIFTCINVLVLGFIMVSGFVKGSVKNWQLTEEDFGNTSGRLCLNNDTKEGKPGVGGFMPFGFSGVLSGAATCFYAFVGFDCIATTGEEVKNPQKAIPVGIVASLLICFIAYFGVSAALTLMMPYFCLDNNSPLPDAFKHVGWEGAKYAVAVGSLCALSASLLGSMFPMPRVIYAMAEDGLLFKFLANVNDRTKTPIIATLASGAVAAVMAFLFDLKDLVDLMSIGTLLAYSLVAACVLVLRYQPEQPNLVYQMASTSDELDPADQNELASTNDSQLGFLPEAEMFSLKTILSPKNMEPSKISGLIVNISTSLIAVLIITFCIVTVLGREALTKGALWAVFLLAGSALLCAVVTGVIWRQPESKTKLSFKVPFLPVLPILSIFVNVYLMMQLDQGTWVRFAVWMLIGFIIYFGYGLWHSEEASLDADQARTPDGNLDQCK

CAT1 (Homo sapiens) gave a Km of 246 µM.
